# Reference: patent publication US11358986B2, “IL-2RBETA binding compounds” (MEDIKINE, INC., priority 2018, dated 2022)
# Ends that are not written are not given here.
# Assays:
# [1] = target: T1, IL-2Rγc subunit (Homo sapiens, UniProt P31785); experiment: Competitive binding of synthetic test peptides against phage clones on IL-2Rγc; conditions: for Competition with phage clone peptide SEQ ID NO: 198: phage clone of IL-2Rγc family 1A; for Competition with phage clone peptide SEQ ID NO: 224: phage clone of IL-2Rγc family 1B; for Competition with phage clone peptide SEQ ID NO: 236: phage clone of IL-2Rγc family 2; for Competition with phage clone peptide SEQ ID NO: 248 or 1051: phage clone of IL-2Rγc family 3; for Competition with phage clone peptide SEQ ID NO: 266: phage clone of IL-2Rγc family 4; for Competition with phage clone peptide SEQ ID NO: 948: phage clone of IL-2Rγc family 5
# T1 construct: Fc; purchased ACRObiosystems, Inc. ILG-H5256
# T1 sequence (P31785 23-254): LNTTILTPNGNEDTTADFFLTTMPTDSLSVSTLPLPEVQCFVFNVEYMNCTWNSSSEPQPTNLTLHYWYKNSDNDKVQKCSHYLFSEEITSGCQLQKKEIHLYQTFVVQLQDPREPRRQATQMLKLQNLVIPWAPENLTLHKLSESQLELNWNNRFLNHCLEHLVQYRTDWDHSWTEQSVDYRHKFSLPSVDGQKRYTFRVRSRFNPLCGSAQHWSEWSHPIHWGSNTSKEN
# Experimental: (§1) Competitive binding assays were performed to characterize the IL-2R binding sites for certain IL-2Rβ and to IL-2Rγc ligands.
# (§2) Phage binding to the immobilized IL-2Rβ ECD was detected by staining with antibody against phage coat proteins (anti-phage Ab), staining with labeled secondary antibody against the anti-phage Ab, and scored by reading OD in the microtiter plate optical reader.
# (§3) The ELISA signal for each phage binding in the presence and absence of the test peptides was compared to determine which synthetic peptides competed with which phage peptides for binding to the IL-2Rβ subunit.
# A similar study was performed to evaluate the binding of IL-2Rγc ligands.
# [2] = target: T2, extracellular domain (ECD) of IL-2Rβ (Homo sapiens, UniProt P14784); experiment: Competitive binding of synthetic test peptides against phage clones on immobilized IL-2Rβ ECD; conditions: for Competition with phage clone peptide SEQ ID NO: 58: phage clone of IL-2β family 1; for Competition with phage clone peptide SEQ ID NO: 170: phage clone of IL-2β family 2A; for Competition with phage clone peptide SEQ ID NO: 83: phage clone of IL-2β family 2B; for Competition with phage clone peptide SEQ ID NO: 1034 or 1084: phage clone of IL-2β family 2C; for Competition with phage clone peptide SEQ ID NO: 1044: phage clone of IL-2β family 4
# T2 construct: Fc; purchased ACRObiosystems, Inc. ILB-H5253
# T2 sequence (P14784 27-239): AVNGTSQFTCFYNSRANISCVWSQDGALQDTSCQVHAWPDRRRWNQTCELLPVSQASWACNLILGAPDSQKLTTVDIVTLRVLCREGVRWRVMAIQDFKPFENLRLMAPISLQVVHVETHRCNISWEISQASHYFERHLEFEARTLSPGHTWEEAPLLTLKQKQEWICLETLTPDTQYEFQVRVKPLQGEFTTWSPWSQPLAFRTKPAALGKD
# Experimental: as §1
# Representative phage clones displaying peptides from IL-2Rβ ligand families were bound to the extracellular domain (ECD) of IL-2Rβ immobilized in microtiter wells. Phage binding was conducted in the presence and absence of synthetic test peptides to determine if phage peptides and test peptides competed for binding to the same sites on IL-2Rβ. Synthetic test peptides were selected to represent peptides from IL-2Rβ ligand families, as well positive and negative control peptides.
# as §2, §3
# [3] = tested on: NK-92 cells; experiment: STAT5 phosphorylation in NK-92 cells; format: cell-based, human; conditions: Western Blot, 0.1, 1 and 10 μM, 30 min
# Experimental: NK-92 cells were seeded in a 24-well plate at 4×10^5 cells, in 1 mL starvation medium (SM), and incubated overnight at 37° C., 5% CO2. The starvation medium contained RPMI 1640+20% FBS+2 mM L-glutamine+1 mM NaPyr+10 mM HEPES+0.1 mM BME (no rhIL-2 supplement).
# Treatment mixtures were of 1 pg/mL Anti-hIL-2 neutralizing antibody (0.2 mg/mL stock) or goat IgG control (1 mg/mL stock) were prepared.
# The treatment mixtures and the antibody mix were added to the cells for 30 min at 37° C., 5% CO2. Each sample was then transferred to a 1.5 mL microfuge tube and spun down at 1,500 RPM for 5 minutes. The cells were washed in 1 mL PBS and centrifuged again.
# A phosphatase and protease inhibitor cocktail (Thermo #78442) were added to mPER buffer at a 1:100 dilution. After the cells were pelleted, 50 μL of mPER buffer was added to each sample and pipetted repeatedly to homogenize.
# The lysates were centrifuged at 14,000 RPM for 5 min at RT. The supernatants were transferred to clean tubes and stored frozen at −80° C.
# The treatment reagents included Anti-STAT5 Antibody (rabbit), Cell Signaling No. 94205S; Anti-pSTAT5 Antibody (rabbit), Cell Signaling No. 4322S; and Goat anti-rabbit IgG-HRP, Jackson Immunoresearch No. 111-035-144.
Competition with phage clone peptide SEQ ID NO: 198 [1],Competition with phage clone peptide SEQ ID NO: 224 [1],Competition with phage clone peptide SEQ ID NO: 236 [1],Competition with phage clone peptide SEQ ID NO: 248 or 1051 [1],Competition with phage clone peptide SEQ ID NO: 266 [1],Competition with phage clone peptide SEQ ID NO: 948 [1],Competition with phage clone peptide SEQ ID NO: 58 [2],Competition with phage clone peptide SEQ ID NO: 170 [2],Competition with phage clone peptide SEQ ID NO: 83 [2],Competition with phage clone peptide SEQ ID NO: 1034 or 1084 [2],Competition with phage clone peptide SEQ ID NO: 1044 [2],Substance,other results
−^2,−,−,−,−,+ (Peptide competes with phage binding.),,,,,,948 (SLLKCYNASTCASVF) [Peptide 948],
,,,,,,,,,,,1041 (WESWNVGDLVNLVNW) [compound 1041],competition for binding to the binding site of the IL-2Rβ subunit with the group of IL-2Rβ ligands [2]: does not compete
,,,,,,,,,,,Compound B: heterodimer of SEQ. ID. NO: 58 and SEQ ID. NO. 237 (chain 1 YDCRIAQVGELCDL; chain 2 LCFSEFLGEWVDCN; cysteine pairing not given here; also: heterodimer),STAT5 phosphorylation (pSTAT5) [3]: induced
,,,,,,,,,,,948 (SLLKCYNASTCASVF) [compound 948],competition for binding to the binding site of the IL-2Rγc subunit with the group of IL-2Rγc ligands [1]: does not compete
,,,,,,,,,,,58 (YDCRIAQVGELCDL) [compound 58],competition for binding to the binding site of the IL-2Rγc subunit with the group of IL-2Rγc ligands [1]: does not compete
+ (Peptide competes with phage binding.),+ (Peptide competes with phage binding.),+ (Peptide competes with phage binding.),+ (Peptide competes with phage binding.),+ (Peptide competes with phage binding.),−,−,−,−,−,−,224 (DCSMWEGVELCW) [Peptide 224],
,,,,,,+ (Peptide competes with phage binding.),+ (Peptide competes with phage binding.),+ (Peptide competes with phage binding.),+ (Peptide competes with phage binding.),−,1042 (CYEVGDYCQSPL) [Peptide 1042],
,,,,,,+ (Peptide competes with phage binding.),+ (Peptide competes with phage binding.),+ (Peptide competes with phage binding.),+ (Peptide competes with phage binding.),−,169 (NMCLVGDYWPSCQI) [Peptide 169],
+ (Peptide competes with phage binding.),+ (Peptide competes with phage binding.),+ (Peptide competes with phage binding.),+ (Peptide competes with phage binding.),+ (Peptide competes with phage binding.),−,,,,,,"SEQ ID NO: 248 or 1051: IL-2Rγc family 3 test peptide, SEQ ID NO: 248 or its modified form SEQ ID NO: 1051 (DLSDLSTFWLSQ; not fully specified)",
,,,,,,,,,,,1044 (RSCYYKRPRLWCSE) [compound 1044],competition for binding to the binding site of the IL-2Rβ subunit with the group of IL-2Rβ ligands [2]: does not compete
+ (Peptide competes with phage binding.),+ (Peptide competes with phage binding.),+ (Peptide competes with phage binding.),+ (Peptide competes with phage binding.),+ (Peptide competes with phage binding.),−,,,,,,236 (MCWLEWGEWVGSCL) [Peptide 236],
,,,,,,−^2,−,−,−,+ (Peptide competes with phage binding.),1044 (RSCYYKRPRLWCSE) [Peptide 1044],
,,,,,,,,,,,224 (DCSMWEGVELCW) [compound 224],competition for binding to the binding site of the IL-2Rβ subunit with the group of IL-2Rβ ligands [2]: does not compete
,,,,,,,,,,,Compound A: heterodimer of SEQ. ID. NO: 58 and SEQ ID. NO. 224 (chain 1 YDCRIAQVGELCDL; chain 2 DCSMWEGVELCW; cysteine pairing not given here; also: heterodimer),STAT5 phosphorylation (pSTAT5) [3]: induced

Substance,Competition with phage clone peptide SEQ ID NO: 198 [1],Competition with phage clone peptide SEQ ID NO: 224 [1],Competition with phage clone peptide SEQ ID NO: 236 [1],Competition with phage clone peptide SEQ ID NO: 248 or 1051 [1],Competition with phage clone peptide SEQ ID NO: 266 [1],Competition with phage clone peptide SEQ ID NO: 948 [1],Competition with phage clone peptide SEQ ID NO: 58 [2],Competition with phage clone peptide SEQ ID NO: 170 [2],Competition with phage clone peptide SEQ ID NO: 83 [2],Competition with phage clone peptide SEQ ID NO: 1034 or 1084 [2],Competition with phage clone peptide SEQ ID NO: 1044 [2],other results
202 (RTCTEWENVVLCWV) [Peptide 202],+^1 (Peptide competes with phage binding.),+ (Peptide competes with phage binding.),+ (Peptide competes with phage binding.),+ (Peptide competes with phage binding.),+ (Peptide competes with phage binding.),−,,,,,,
58 (YDCRIAQVGELCDL) [Peptide 58],−,−,−,−,−,−,+^1 (Peptide competes with phage binding.),+ (Peptide competes with phage binding.),+ (Peptide competes with phage binding.),+ (Peptide competes with phage binding.),−,
